We go through one substance from paper PMC9057599.

This assay deals with histone H4 N-terminus, 1-30 (UniProt P62805). The assay is described as follows: biotin-peptide pulldown, blot. As to conditions: reference: wild type ZMYND8; sites S486,S490.

As for “ZMYND8 (from UniProt Q9ULU4) 2SA (S486A/S490A)”, the “binding against the reference” value is listed as “stronger”.
